Laboratory results reported in the supplement of paper PMC7125110.
± gives the standard error. Fewer inactive variants are shown than the library holds.

B1: glmS ribozyme (parent)
chain: AUAAAAGCGCCAGAACUACAGAAAUGUAGUUGACGAGGAGGAGGUUUAUCGAAUUUUCGGCGGAUGCCUCCAAA

Experiments:
Conditions in all cases: with glucosamine-6-phosphate
[1] = variants of: B1; assay: self-cleavage kobs at 40 uM GlcN6P; higher = faster cleavage; RNA array
How it was run: (§1)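 The measurements used barcoded ribozyme variants on sequenced MiSeq chips, transcribed in situ by E. coli RNA polymerase and tracked at 37 °C with a hybridised Cy3 probe. Glucosamine-6-phosphate, 40 μM to 10 mM in HEPES/KCl/Mg(OAc)2 buffer, was flowed in while tiles were imaged over ~14 h. Baseline-normalised signals, also normalised to non-cleaving reference variants, gave per-tile medians that were fit to one- or two-exponential decays for kobs. kcat and KM resulted from weighted Michaelis–Menten fits across concentrations.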

[2] = variants of: B1; assay: self-cleavage kobs at 10000 uM GlcN6P; higher = faster cleavage; RNA array
How it was run: as §1

[3] = variants of: B1; assay: self-cleavage kobs at 160 uM GlcN6P; higher = faster cleavage; RNA array
How it was run: as §1

[4] = variants of: B1; assay: self-cleavage kobs at 2500 uM GlcN6P; higher = faster cleavage; RNA array
How it was run: as §1

[5] = variants of: B1; assay: self-cleavage kobs at 640 uM GlcN6P; higher = faster cleavage; RNA array
How it was run: as §1

Variant	self-cleavage kobs at 40 uM GlcN6P [1]	self-cleavage kobs at 10000 uM GlcN6P [2]	self-cleavage kobs at 160 uM GlcN6P [3]	self-cleavage kobs at 2500 uM GlcN6P [4]	self-cleavage kobs at 640 uM GlcN6P [5]
G32C C67A	< 1e-05 s⁻¹	2.83e-05 ± 9.7e-06 s⁻¹			
C34U U45C	< 1e-05 s⁻¹	< 1e-05 s⁻¹	< 1e-05 s⁻¹	< 1e-05 s⁻¹	
C34A U54C C61G	< 1e-05 s⁻¹		< 1e-05 s⁻¹		
U31G C61U	< 1e-05 s⁻¹		< 1e-05 s⁻¹	< 1e-05 s⁻¹	< 1e-05 s⁻¹
A33G G41C U47C	< 1e-05 s⁻¹			< 1e-05 s⁻¹	< 1e-05 s⁻¹
C34G G41U C58U	< 1e-05 s⁻¹	< 1e-05 s⁻¹			
U31A U47G C70U	0.000179 ± 3.9e-05 s⁻¹	0.00277 ± 0.00063 s⁻¹	0.000219 ± 4.3e-05 s⁻¹	0.000719 ± 0.00018 s⁻¹	0.000928 ± 0.00014 s⁻¹
U31C C34A C68U	< 1e-05 s⁻¹	< 1e-05 s⁻¹			
C34U U49A C58A U69A	0.000146 ± 5e-05 s⁻¹	4.63e-05 ± 2e-05 s⁻¹			0.000567 ± 0.00014 s⁻¹
G32A G62A	< 1e-05 s⁻¹	< 1e-05 s⁻¹	< 1e-05 s⁻¹		< 1e-05 s⁻¹
U31G G35C G44U U54A	< 1e-05 s⁻¹	< 1e-05 s⁻¹		< 1e-05 s⁻¹	
G32A C50G U56G C70U	0.000356 ± 7.7e-05 s⁻¹	0.00032 ± 7.2e-05 s⁻¹			
G32C U46C	< 1e-05 s⁻¹				
G32C U46A	< 1e-05 s⁻¹		< 1e-05 s⁻¹		< 1e-05 s⁻¹
U31G G32U	5.84e-05 ± 1e-05 s⁻¹	0.00232 ± 0.00036 s⁻¹		0.000925 ± 0.00026 s⁻¹	0.000363 ± 7.2e-05 s⁻¹
A33C U54A U57C	< 1e-05 s⁻¹			< 1e-05 s⁻¹	
A33G A52U	< 1e-05 s⁻¹	< 1e-05 s⁻¹			< 1e-05 s⁻¹
C34G A53C	< 1e-05 s⁻¹	< 1e-05 s⁻¹	< 1e-05 s⁻¹	< 1e-05 s⁻¹	< 1e-05 s⁻¹
U31C G41U U45G C70G	3.43e-05 ± 1.6e-05 s⁻¹	0.000585 ± 0.00013 s⁻¹			
A33C U49C C50U	< 1e-05 s⁻¹	< 1e-05 s⁻¹			
C34A U65G	< 1e-05 s⁻¹	< 1e-05 s⁻¹	< 1e-05 s⁻¹	< 1e-05 s⁻¹	< 1e-05 s⁻¹
C34U G38C C67U	< 1e-05 s⁻¹	< 1e-05 s⁻¹			
C34U G41U G62U	< 1e-05 s⁻¹				
A33U G38C G40C U65A C70G	< 1e-05 s⁻¹	< 1e-05 s⁻¹		< 1e-05 s⁻¹	

Variant	self-cleavage kobs at 40 uM GlcN6P [1]	self-cleavage kobs at 10000 uM GlcN6P [2]	self-cleavage kobs at 160 uM GlcN6P [3]	self-cleavage kobs at 2500 uM GlcN6P [4]	self-cleavage kobs at 640 uM GlcN6P [5]
G32A G51A	< 1e-05 s⁻¹	< 1e-05 s⁻¹	< 1e-05 s⁻¹		< 1e-05 s⁻¹
A33U U65G C71U	< 1e-05 s⁻¹				
G32C A42C C68A	< 1e-05 s⁻¹				< 1e-05 s⁻¹
A33G U45A C71A	< 1e-05 s⁻¹	< 1e-05 s⁻¹			
C34A U54A G62U G63U	< 1e-05 s⁻¹	< 1e-05 s⁻¹			< 1e-05 s⁻¹
C34G G44A G60C	< 1e-05 s⁻¹	< 1e-05 s⁻¹		< 1e-05 s⁻¹	
U31G C70U	0.000479 ± 7.2e-05 s⁻¹	0.0305 ± 0.0058 s⁻¹	0.00104 ± 0.0002 s⁻¹	0.0117 ± 0.0029 s⁻¹	0.0023 ± 0.00038 s⁻¹
C34A U54C	< 1e-05 s⁻¹	< 1e-05 s⁻¹	< 1e-05 s⁻¹		< 1e-05 s⁻¹
C34U G40C	< 1e-05 s⁻¹	< 1e-05 s⁻¹			< 1e-05 s⁻¹
G32U C67U C70U	< 1e-05 s⁻¹				
C34G G37U A39C A53U	< 1e-05 s⁻¹				
A33C G44C U45C	< 1e-05 s⁻¹	< 1e-05 s⁻¹			< 1e-05 s⁻¹
G32C G44A	< 1e-05 s⁻¹	< 1e-05 s⁻¹	< 1e-05 s⁻¹	< 1e-05 s⁻¹	< 1e-05 s⁻¹
C34G A36U U46A A52G C71A	< 1e-05 s⁻¹	< 1e-05 s⁻¹	< 1e-05 s⁻¹		< 1e-05 s⁻¹
U31G C50G C70U	5.37e-05 ± 2.4e-05 s⁻¹	4.81e-05 ± 1.5e-05 s⁻¹			
A33G U47G	< 1e-05 s⁻¹	< 1e-05 s⁻¹	< 1e-05 s⁻¹		< 1e-05 s⁻¹
G32C G43C A48G	< 1e-05 s⁻¹				
C34U A52G C68G	0.000541 ± 0.00018 s⁻¹	0.000197 ± 6e-05 s⁻¹			
U31C G44U U56C	< 1e-05 s⁻¹				
U31C C34U G60U	< 1e-05 s⁻¹	< 1e-05 s⁻¹			
C34G G37C C61U U65A	< 1e-05 s⁻¹	< 1e-05 s⁻¹			
A33U C58U C71A	< 1e-05 s⁻¹			< 1e-05 s⁻¹	< 1e-05 s⁻¹
C34U A36C C58A	< 1e-05 s⁻¹				
G32C G63A	< 1e-05 s⁻¹		< 1e-05 s⁻¹	< 1e-05 s⁻¹	< 1e-05 s⁻¹
